Experimental data reported in US20050214899.
Changes are numbered by the printed parent chain. Names and notes keep the numbering of the source.

T1: MADWLTFQKKHI
T1 chain: MADWLTFQKKHI

T2: MQDYLT
T2 chain: MQDYLT

T3: MADY
T3 chain: MADY

T4: MADYLT
T4 chain: MADYLT

T5: MQDWLTFQKKHI
T5 chain: MQDWLTFQKKHI

B1: MetAP-GTG (protein)
chain: AISIKTPEDIEKMRVAGRLAAEVLEMIEPYVKPGVSTGELDRICNDYIVNEQHAVSACLGYHGYPKSVCISINEVVCHGIPDDAKLLKDGDIVNIDVTVIKDGFHGDTSKMFIVGKPTIMGERLCRITQESLYLALRMVKPGINLREIGAAIQKFVEAEGFSVVREGCGHGIGRGFHEEPQVLHYDSRETNVVLKPGMTFTIEPTVNAGKKEIRTMKDGWTVKTKDRSLSAGYEHTIVVTDNGCEILTLRKDDTIPAIISHDE
B2: MetAP-M206T-Q233G (protein)
chain: B1 chain with G167Y
B3: MetAP-YMQ (wild type E. coli methionine aminopeptidase) (protein)
chain: B1 chain with G167Y, T205M, G232Q
B4: MetAP-M206G-Q233G (protein)
chain: B1 chain with G167Y, T205G
B5: MetAP-M206T-Q233T (protein)
chain: B1 chain with G167Y, G232T

Molecular target: T1, MADWLTFQKKHI

Protein	Specific activity (unit/mg)
B1	9.8
B2	73
B3	85
B4	3.28

Molecular target: T2, MQDYLT

Protein	Specific activity (unit/mg)
B1	0.23
B2	0.42
B3	0.43
B5	0.13
B4	0.29

Molecular target: T3, MADY

Protein	Specific activity (unit/mg)
B1	1.68
B2	72
B3	138
B5	0.38
B4	0.51

Molecular target: T4, MADYLT

Protein	Specific activity (unit/mg)
B1	2.5
B2	116
B3	138
B5	0.12
B4	0.29

Molecular target: T5, MQDWLTFQKKHI

Protein	Specific activity (unit/mg)	specific activity relative to that for MADWLTFQKKHI
B1	4.24	The specific activity of MetAP-GTG on the dodecapeptide MQDWLTFQKKHI is 43% of that for MADWLTFQKKHI
B2	0.59	
B3	0.62	
B4	0.5	
